From patent US20140087995A1 (published 2014)
Numbered stars: 1 amine (or outer) side, 2 acyl side, 3 side chain; on linkers, the order of the positions; unused ones are H or OH. Bridge positions count the residues as written; N and C are the ends. Side chains are listed from the residue outwards. Ends that are not written are not given here. * marks the point of attachment. C20 diacid = O=C(O)CCCCCCCCCCCCCCCCCCC(=O)*; γGlu = O=C(O)[C@H](CCC(=O)[*:2])N[*:1]; AEEA = NCCOCCOCC(=O)O

T1: human calcitonin receptor (human, UniProt P30988 25-474)
T1 sequence (looked up): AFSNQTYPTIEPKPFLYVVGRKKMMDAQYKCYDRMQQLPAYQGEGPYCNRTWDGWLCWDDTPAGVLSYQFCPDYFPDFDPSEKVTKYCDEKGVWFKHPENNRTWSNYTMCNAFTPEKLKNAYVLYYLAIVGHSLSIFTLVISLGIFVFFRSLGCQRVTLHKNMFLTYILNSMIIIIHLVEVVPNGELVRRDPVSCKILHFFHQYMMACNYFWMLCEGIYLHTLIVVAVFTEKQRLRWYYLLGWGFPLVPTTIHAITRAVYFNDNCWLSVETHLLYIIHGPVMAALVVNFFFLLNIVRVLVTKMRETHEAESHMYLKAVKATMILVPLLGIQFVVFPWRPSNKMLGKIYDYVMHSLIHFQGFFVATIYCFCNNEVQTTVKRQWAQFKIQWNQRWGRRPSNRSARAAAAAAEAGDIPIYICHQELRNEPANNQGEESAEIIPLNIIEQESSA

T2: human amylin receptor (amylin 3(a) receptor: human calcitonin receptor co-expressed with RAMP-3) (human, UniProt P30988 25-474; O60896 24-148, limits assumed)
T2 sequence (looked up) 1: T1 sequence (looked up)
T2 sequence (looked up) 2: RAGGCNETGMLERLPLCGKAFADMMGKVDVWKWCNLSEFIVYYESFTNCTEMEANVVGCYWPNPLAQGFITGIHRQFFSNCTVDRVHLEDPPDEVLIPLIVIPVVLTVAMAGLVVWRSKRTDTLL

B1: N^ε1-[2-[2-[2-[[(4S)-4-carboxy-4-(19-carboxynonadecanoylamino)butanoyl]amino]ethoxy]ethoxy]acetyl]-[His14,Arg17,Pro21,Pro27,Arg34]-h-amylin (peptide)
peptide: K([AEEA-γGlu-C20 diacid])CNTATCATQRLAHFLRHSSPNFGAIPSSTNVGRNTY-NH2
modifications: disulfide 2-7; N-terminus assumed
SMILES: CC[C@H](C)[C@H](NC(=O)[C@H](C)NC(=O)CNC(=O)[C@H](Cc1ccccc1)NC(=O)[C@H](CC(N)=O)NC(=O)[C@@H]1CCCN1C(=O)[C@H](CO)NC(=O)[C@H](CO)NC(=O)[C@H](Cc1c[nH]cn1)NC(=O)[C@H](CCCNC(=N)N)NC(=O)[C@H](CC(C)C)NC(=O)[C@H](Cc1ccccc1)NC(=O)[C@H](Cc1c[nH]cn1)NC(=O)[C@H](C)NC(=O)[C@H](CC(C)C)NC(=O)[C@H](CCCNC(=N)N)NC(=O)[C@H](CCC(N)=O)NC(=O)[C@@H](NC(=O)[C@H](C)NC(=O)[C@@H]1CSSC[C@H](NC(=O)[C@@H](N)CCCCNC(=O)COCCOCCNC(=O)CC[C@H](NC(=O)CCCCCCCCCCCCCCCCCCC(=O)O)C(=O)O)C(=O)N[C@@H](CC(N)=O)C(=O)N[C@@H]([C@@H](C)O)C(=O)N[C@@H](C)C(=O)N[C@@H]([C@@H](C)O)C(=O)N1)[C@@H](C)O)C(=O)N1CCC[C@H]1C(=O)N[C@@H](CO)C(=O)N[C@@H](CO)C(=O)N[C@H](C(=O)N[C@@H](CC(N)=O)C(=O)N[C@H](C(=O)NCC(=O)N[C@@H](CCCNC(=N)N)C(=O)N[C@@H](CC(N)=O)C(=O)N[C@H](C(=O)N[C@@H](Cc1ccc(O)cc1)C(N)=O)[C@@H](C)O)C(C)C)[C@@H](C)O
notes: also called compound 84
B2: N^ε1-[2-[2-[2-[[(4S)-4-carboxy-4-(19-carboxynonadecanoylamino)butanoyl]amino]ethoxy]ethoxy]acetyl]-[His14,Arg17,Pro21,Pro27,His34]-h-amylin (peptide)
peptide: K([AEEA-γGlu-C20 diacid])CNTATCATQRLAHFLRHSSPNFGAIPSSTNVGHNTY-NH2
modifications: disulfide 2-7; N-terminus assumed
SMILES: CC[C@H](C)[C@H](NC(=O)[C@H](C)NC(=O)CNC(=O)[C@H](Cc1ccccc1)NC(=O)[C@H](CC(N)=O)NC(=O)[C@@H]1CCCN1C(=O)[C@H](CO)NC(=O)[C@H](CO)NC(=O)[C@H](Cc1c[nH]cn1)NC(=O)[C@H](CCCNC(=N)N)NC(=O)[C@H](CC(C)C)NC(=O)[C@H](Cc1ccccc1)NC(=O)[C@H](Cc1c[nH]cn1)NC(=O)[C@H](C)NC(=O)[C@H](CC(C)C)NC(=O)[C@H](CCCNC(=N)N)NC(=O)[C@H](CCC(N)=O)NC(=O)[C@@H](NC(=O)[C@H](C)NC(=O)[C@@H]1CSSC[C@H](NC(=O)[C@@H](N)CCCCNC(=O)COCCOCCNC(=O)CC[C@H](NC(=O)CCCCCCCCCCCCCCCCCCC(=O)O)C(=O)O)C(=O)N[C@@H](CC(N)=O)C(=O)N[C@@H]([C@@H](C)O)C(=O)N[C@@H](C)C(=O)N[C@@H]([C@@H](C)O)C(=O)N1)[C@@H](C)O)C(=O)N1CCC[C@H]1C(=O)N[C@@H](CO)C(=O)N[C@@H](CO)C(=O)N[C@H](C(=O)N[C@@H](CC(N)=O)C(=O)N[C@H](C(=O)NCC(=O)N[C@@H](Cc1c[nH]cn1)C(=O)N[C@@H](CC(N)=O)C(=O)N[C@H](C(=O)N[C@@H](Cc1ccc(O)cc1)C(N)=O)[C@@H](C)O)C(C)C)[C@@H](C)O
notes: also called compound 80
B3: N^ε1-[2-[2-[2-[[(4S)-4-carboxy-4-(19-carboxynonadecanoylamino)butanoyl]amino]ethoxy]ethoxy]acetyl]-[His14,Arg17,Pro21,Pro27,Pro31]-h-amylin (peptide)
peptide: K([AEEA-γGlu-C20 diacid])CNTATCATQRLAHFLRHSSPNFGAIPSSTPVGSNTY-NH2
modifications: disulfide 2-7; N-terminus assumed
SMILES: CC[C@H](C)[C@H](NC(=O)[C@H](C)NC(=O)CNC(=O)[C@H](Cc1ccccc1)NC(=O)[C@H](CC(N)=O)NC(=O)[C@@H]1CCCN1C(=O)[C@H](CO)NC(=O)[C@H](CO)NC(=O)[C@H](Cc1c[nH]cn1)NC(=O)[C@H](CCCNC(=N)N)NC(=O)[C@H](CC(C)C)NC(=O)[C@H](Cc1ccccc1)NC(=O)[C@H](Cc1c[nH]cn1)NC(=O)[C@H](C)NC(=O)[C@H](CC(C)C)NC(=O)[C@H](CCCNC(=N)N)NC(=O)[C@H](CCC(N)=O)NC(=O)[C@@H](NC(=O)[C@H](C)NC(=O)[C@@H]1CSSC[C@H](NC(=O)[C@@H](N)CCCCNC(=O)COCCOCCNC(=O)CC[C@H](NC(=O)CCCCCCCCCCCCCCCCCCC(=O)O)C(=O)O)C(=O)N[C@@H](CC(N)=O)C(=O)N[C@@H]([C@@H](C)O)C(=O)N[C@@H](C)C(=O)N[C@@H]([C@@H](C)O)C(=O)N1)[C@@H](C)O)C(=O)N1CCC[C@H]1C(=O)N[C@@H](CO)C(=O)N[C@@H](CO)C(=O)N[C@H](C(=O)N1CCC[C@H]1C(=O)N[C@H](C(=O)NCC(=O)N[C@@H](CO)C(=O)N[C@@H](CC(N)=O)C(=O)N[C@H](C(=O)N[C@@H](Cc1ccc(O)cc1)C(N)=O)[C@@H](C)O)C(C)C)[C@@H](C)O
notes: also called compound 61
B4: N^ε1-[2-[2-[2-[[(4S)-4-carboxy-4-(19-carboxynonadecanoylamino)butanoyl]amino]ethoxy]ethoxy]acetyl]-[His14,Arg17,Pro21,Pro27,Pro34]-h-amylin (peptide)
peptide: K([AEEA-γGlu-C20 diacid])CNTATCATQRLAHFLRHSSPNFGAIPSSTNVGPNTY-NH2
modifications: disulfide 2-7; N-terminus assumed
SMILES: CC[C@H](C)[C@H](NC(=O)[C@H](C)NC(=O)CNC(=O)[C@H](Cc1ccccc1)NC(=O)[C@H](CC(N)=O)NC(=O)[C@@H]1CCCN1C(=O)[C@H](CO)NC(=O)[C@H](CO)NC(=O)[C@H](Cc1c[nH]cn1)NC(=O)[C@H](CCCNC(=N)N)NC(=O)[C@H](CC(C)C)NC(=O)[C@H](Cc1ccccc1)NC(=O)[C@H](Cc1c[nH]cn1)NC(=O)[C@H](C)NC(=O)[C@H](CC(C)C)NC(=O)[C@H](CCCNC(=N)N)NC(=O)[C@H](CCC(N)=O)NC(=O)[C@@H](NC(=O)[C@H](C)NC(=O)[C@@H]1CSSC[C@H](NC(=O)[C@@H](N)CCCCNC(=O)COCCOCCNC(=O)CC[C@H](NC(=O)CCCCCCCCCCCCCCCCCCC(=O)O)C(=O)O)C(=O)N[C@@H](CC(N)=O)C(=O)N[C@@H]([C@@H](C)O)C(=O)N[C@@H](C)C(=O)N[C@@H]([C@@H](C)O)C(=O)N1)[C@@H](C)O)C(=O)N1CCC[C@H]1C(=O)N[C@@H](CO)C(=O)N[C@@H](CO)C(=O)N[C@H](C(=O)N[C@@H](CC(N)=O)C(=O)N[C@H](C(=O)NCC(=O)N1CCC[C@H]1C(=O)N[C@@H](CC(N)=O)C(=O)N[C@H](C(=O)N[C@@H](Cc1ccc(O)cc1)C(N)=O)[C@@H](C)O)C(C)C)[C@@H](C)O
notes: also called compound 68
B5: N^ε1-[2-[2-[2-[[(4S)-4-carboxy-4-(19-carboxynonadecanoylamino)butanoyl]amino]ethoxy]ethoxy]acetyl]-[Lys14,Arg17,Pro21,Pro27,Pro31]-h-amylin (peptide)
peptide: K([AEEA-γGlu-C20 diacid])CNTATCATQRLAKFLRHSSPNFGAIPSSTPVGSNTY-NH2
modifications: disulfide 2-7; N-terminus assumed
SMILES: CC[C@H](C)[C@H](NC(=O)[C@H](C)NC(=O)CNC(=O)[C@H](Cc1ccccc1)NC(=O)[C@H](CC(N)=O)NC(=O)[C@@H]1CCCN1C(=O)[C@H](CO)NC(=O)[C@H](CO)NC(=O)[C@H](Cc1c[nH]cn1)NC(=O)[C@H](CCCNC(=N)N)NC(=O)[C@H](CC(C)C)NC(=O)[C@H](Cc1ccccc1)NC(=O)[C@H](CCCCN)NC(=O)[C@H](C)NC(=O)[C@H](CC(C)C)NC(=O)[C@H](CCCNC(=N)N)NC(=O)[C@H](CCC(N)=O)NC(=O)[C@@H](NC(=O)[C@H](C)NC(=O)[C@@H]1CSSC[C@H](NC(=O)[C@@H](N)CCCCNC(=O)COCCOCCNC(=O)CC[C@H](NC(=O)CCCCCCCCCCCCCCCCCCC(=O)O)C(=O)O)C(=O)N[C@@H](CC(N)=O)C(=O)N[C@@H]([C@@H](C)O)C(=O)N[C@@H](C)C(=O)N[C@@H]([C@@H](C)O)C(=O)N1)[C@@H](C)O)C(=O)N1CCC[C@H]1C(=O)N[C@@H](CO)C(=O)N[C@@H](CO)C(=O)N[C@H](C(=O)N1CCC[C@H]1C(=O)N[C@H](C(=O)NCC(=O)N[C@@H](CO)C(=O)N[C@@H](CC(N)=O)C(=O)N[C@H](C(=O)N[C@@H](Cc1ccc(O)cc1)C(N)=O)[C@@H](C)O)C(C)C)[C@@H](C)O
notes: also called compound 74
B6: N^ε1-[2-[2-[2-[[(4S)-4-carboxy-4-(19-carboxynonadecanoylamino)butanoyl]amino]ethoxy]ethoxy]acetyl]-[Ser14,Arg17,Pro21,Pro27,Pro31]-h-amylin (peptide)
peptide: K([AEEA-γGlu-C20 diacid])CNTATCATQRLASFLRHSSPNFGAIPSSTPVGSNTY-NH2
modifications: disulfide 2-7; N-terminus assumed
SMILES: CC[C@H](C)[C@H](NC(=O)[C@H](C)NC(=O)CNC(=O)[C@H](Cc1ccccc1)NC(=O)[C@H](CC(N)=O)NC(=O)[C@@H]1CCCN1C(=O)[C@H](CO)NC(=O)[C@H](CO)NC(=O)[C@H](Cc1c[nH]cn1)NC(=O)[C@H](CCCNC(=N)N)NC(=O)[C@H](CC(C)C)NC(=O)[C@H](Cc1ccccc1)NC(=O)[C@H](CO)NC(=O)[C@H](C)NC(=O)[C@H](CC(C)C)NC(=O)[C@H](CCCNC(=N)N)NC(=O)[C@H](CCC(N)=O)NC(=O)[C@@H](NC(=O)[C@H](C)NC(=O)[C@@H]1CSSC[C@H](NC(=O)[C@@H](N)CCCCNC(=O)COCCOCCNC(=O)CC[C@H](NC(=O)CCCCCCCCCCCCCCCCCCC(=O)O)C(=O)O)C(=O)N[C@@H](CC(N)=O)C(=O)N[C@@H]([C@@H](C)O)C(=O)N[C@@H](C)C(=O)N[C@@H]([C@@H](C)O)C(=O)N1)[C@@H](C)O)C(=O)N1CCC[C@H]1C(=O)N[C@@H](CO)C(=O)N[C@@H](CO)C(=O)N[C@H](C(=O)N1CCC[C@H]1C(=O)N[C@H](C(=O)NCC(=O)N[C@@H](CO)C(=O)N[C@@H](CC(N)=O)C(=O)N[C@H](C(=O)N[C@@H](Cc1ccc(O)cc1)C(N)=O)[C@@H](C)O)C(C)C)[C@@H](C)O
notes: also called compound 73

These binders were tested against T1, human calcitonin receptor (assay: cell-based or functional assay).

Binder | hCTR funct. EC50
B1 | 5.49 nM
B2 | 2.14 nM
B3 | 0.554 nM
B4 | 0.932 nM
B5 | 37.5 nM
B6 | 0.961 nM

The binders below were run against T2, human amylin receptor (amylin 3(a) …) (assay: cell-based or functional assay).

Binder | Ratio hCT/hAmylin funct. | hAmylin-R funct. EC50
B1 | 32.5 | 0.169 nM
B2 | – | 0.139 nM
B3 | – | 0.051 nM
B4 | – | 0.054 nM
B5 | – | 0.666 nM
B6 | – | 0.085 nM
